Holding throughout (assay type): biochemical
Holding throughout (set-up): key to Activity of mutant relative to wild-type Gaussia luciferase without the signal peptide: ratio of mutant luminescence intensity to wild-type Gaussia luciferase

A short description of experiment [1]: Luminescence activity assay of purified Gaussia luciferase mutants on fluoro-coelenterazine. Particulars: Substrate f-CTZ (Table 16). On the procedure: In this Example, the protein concentration was determined with a BCA quantitative kit (Thermo Scientific™ Pierce™ BCA Protein Assay Kit) accurately. The purified luciferase obtained in Example 5 was diluted with diluent (50 mM Tris-HCl, pH 8.0, 100 mM NaCl, 0.1% (v/v) Tween-20) to 1 μg/mL. The diluted luciferase, taken for 10 μL, was moved into a black 96-well plate, then added with 90 μL of the substrates coelenterazine, fluoro-coelenterazine or coelenterazine derivative ZS2 (purchased from Biolab) which was diluted into 100 μM with the same diluent, and the luminescence intensity of the plate was read with a self-luminescence module of a microplate reader. The mutation site of the mutant, the measured luminescence intensity, the ratio of luminescence intensities of the advantageous mutants to the wild-type Gaussia luciferase without the signal peptide having the sequence shown in SEQ ID NO: 3 are shown in Table 15. The results of catalytic activity assay of the advantageous mutants relative to the wild-type Gaussia luciferase without the signal peptide having the sequence shown in SEQ ID NO: 3 on substrate coelenterazine are shown in FIG. 6. […] The results of catalytic activity assay of the advantageous mutants relative to the wild-type Gaussia luciferase without the signal peptide having the sequence shown in SEQ ID NO: 3 on substrate fluoro-coelenterazine are shown in FIG. 7.
The new mutant library constructed in Example 7 was screened and tested for substrate specificity. Expression and purification schemes were the same as that in Example 5, and the activity assay scheme was the same as that in Example 6. The respective catalytic activities of combinatorial mutants on coelenterazine, fluoro-coelenterazine or coelenterazine derivative ZS2, and coelenterazine derivative ZS26 (purchased from BIOLAB) were assayed, and comparisons among the substrate specificities of the combinatorial mutants were based on the ratios of catalytic activities on two corresponding substrates.

The nature of experiment [2]: Luminescence activity assay of purified Gaussia luciferase mutants on coelenterazine derivative ZS2. As to conditions: Substrate ZS2 (Table 16). Put shortly: (§1)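 Readout: luminescence intensity, as ratio to signal-peptide-free wild-type enzyme. Enzyme 1 μg/mL, substrate 100 μM stock, 10 μL + 90 μL; buffer 50 mM Tris-HCl pH 8.0, 100 mM NaCl, 0.1% Tween-20.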
Experiment [3] in a line: Luminescence activity assay of purified Gaussia luciferase mutants on coelenterazine. Particulars: Substrate CTZ (Table 16). Put shortly: as §1

Numbering of substitutions follows the chain as printed. Numbers in names are those of the source.

B1: F26R N27D V29D A30G A32D S33N T37A L40P: Gaussia luciferase mutant (protein)
chain: MGVKVLFALICIAVAEAKPTENNEDRDIDGVDNNFAATDPDADRGKLPGKKLPLEVLKEMEANARKAGCTRGCLICLSHIKCTPKMKKFIPGRCHTYEGDKESAQGGIGEAIVDIPEIPGFKDLEPMEQFIAQVDLCVDCTTGCLKGLANVQCSDLLKKWLPQRCATFASKIQGQVDKIKGAGGD
modifications: SIGNAL (1)..(17)
notes: Gaussia luciferase mutant
For B1, the “Activity of mutant relative to wild-type Gaussia luciferase without the signal peptide” value stood at 0.049 in experiment [1], 0.031 in experiment [2] and 0.031 in experiment [3].

B2: F26Y N27Y V29A A30G S33V A36V T37S L40G: Gaussia luciferase mutant (protein)
chain: B1 chain with R26Y, D27Y, D29A, D32A, N33V, A36V, A37S, P40G
modifications: SIGNAL (1)..(17)
notes: Gaussia luciferase mutant
In the case of B2, the “Activity of mutant relative to wild-type Gaussia luciferase without the signal peptide” value came to 0.192 in experiment [1], 0.177 in experiment [2] and 0.219 in experiment [3].

B3: F26S N27Y V29C A32G S33E A36Q T37G L40T: Gaussia luciferase mutant (protein)
chain: B1 chain with R26S, D27Y, D29C, G30A, D32G, N33E, A36Q, A37G, P40T
modifications: SIGNAL (1)..(17)
notes: Gaussia luciferase mutant
Consider B3, for which the figures for the “Activity of mutant relative to wild-type Gaussia luciferase without the signal peptide” value in experiment [1], in experiment [2] and in experiment [3] were 0.143, 0.126 and 0.119, respectively.

B4: F26R V29E A30G V31L A36D T37E L40S K159: Gaussia luciferase mutant (protein)
chain: B1 chain with D27N, D29E, V31L, D32A, N33S, A36D, A37E, P40S
B4: the “Activity of mutant relative to wild-type Gaussia luciferase without the signal peptide” value in experiment [1] is 0.009; in experiment [2], 0.001; in experiment [3], 0.000.

B5: A30G V31I A32V S33G A36N T37D L40R: Gaussia luciferase mutant (protein)
chain: B1 chain with R26F, D27N, D29V, V31I, D32V, N33G, A36N, A37D, P40R
modifications: SIGNAL (1)..(17)
notes: Gaussia luciferase mutant
Regarding B5, the “Activity of mutant relative to wild-type Gaussia luciferase without the signal peptide” value in experiment [1] came to 0.615; in experiment [2], 0.116; in experiment [3], 0.138.

B6: F26T N27D V29P A30G V31I A32G S33I A36I T37L L40I: Gaussia luciferase mutant (protein)
chain: B1 chain with R26T, D29P, V31I, D32G, N33I, A36I, A37L, P40I
modifications: SIGNAL (1)..(17)
notes: Gaussia luciferase mutant
With B6, the “Activity of mutant relative to wild-type Gaussia luciferase without the signal peptide” value was found to be 0.210 in experiment [1], 0.224 in experiment [2] and 0.231 in experiment [3].

B7: F26R N27Y V29E A30G A32D S33R A36G T37M L40P: Gaussia luciferase mutant (protein)
chain: B1 chain with D27Y, D29E, N33R, A36G, A37M
modifications: SIGNAL (1)..(17)
notes: Gaussia luciferase mutant
B7: the “Activity of mutant relative to wild-type Gaussia luciferase without the signal peptide” value is listed as 0.172 in experiment [1], 0.147 in experiment [2] and 0.152 in experiment [3].

B8: F26R N27D V29E A30G V31I A32D S33N A36N T37A L40R: Gaussia luciferase mutant (protein)
chain: B1 chain with D29E, V31I, A36N, P40R
modifications: SIGNAL (1)..(17)
notes: Gaussia luciferase mutant
B8: the “Activity of mutant relative to wild-type Gaussia luciferase without the signal peptide” value in experiment [1] turned out to be 0.067; in experiment [2] it was 0.044; in experiment [3], 0.053.

B9: A17V H79K P84A E102D S103T E110P L124M: Gaussia luciferase mutant (protein)
chain: MGVKVLFALICIAVAEVKPTENNEDFNIVAVASNFATTDLDADRGKLPGKKLPLEVLKEMEANARKAGCTRGCLICLSKIKCTAKMKKFIPGRCHTYEGDKDTAQGGIGPAIVDIPEIPGFKDMEPMEQFIAQVDLCVDCTTGCLKGLANVQCSDLLKKWLPQRCATFASKIQGQVDKIKGAGGD
modifications: SIGNAL (1)..(17)
notes: Gaussia luciferase mutant
On to B9, for which the figures for the “Activity of mutant relative to wild-type Gaussia luciferase without the signal peptide” value in experiment [1], in experiment [2] and in experiment [3] were 0.763, 0.082 and 0.198, respectively.

B10: H79K P84A E102S S103I A104G E110P L124M: Gaussia luciferase mutant (protein)
chain: B9 chain with V17A, D102S, T103I, A104G
modifications: SIGNAL (1)..(17)
notes: Gaussia luciferase mutant
Take B10: the “Activity of mutant relative to wild-type Gaussia luciferase without the signal peptide” value was found to be 0.007 in experiment [1], 0.001 in experiment [2] and 0.000 in experiment [3].

B11: H79K P84K E102K S103I V138E: Gaussia luciferase mutant (protein)
chain: B9 chain with V17A, A84K, D102K, T103I, P110E, M124L, V138E
modifications: SIGNAL (1)..(17)
notes: Gaussia luciferase mutant
For B11, the “Activity of mutant relative to wild-type Gaussia luciferase without the signal peptide” value is listed as 0.479 in experiment [1], 0.452 in experiment [2] and 0.750 in experiment [3].

B12: F26V N27Y V29N A30D V31D D32L S33R A36R T37W L40Y K180R: Gaussia luciferase mutant (protein)
chain: MGVKVLFALICIAVAEAKPTENNEDVYINDDLRNFRWTDYDADRGKLPGKKLPLEVLKEMEANARKAGCTRGCLICLSHIKCTPKMKKFIPGRCHTYEGDKESAQGGIGEAIVDIPEIPGFKDLEPMEQFIAQVDLCVDCTTGCLKGLANVQCSDLLKKWLPQRCATFASKIQGQVDKIRGAGGD
modifications: SIGNAL (1)..(17)
notes: Gaussia luciferase mutant
Take B12: the figures for the “Activity of mutant relative to wild-type Gaussia luciferase without the signal peptide” value in experiment [1], in experiment [2] and in experiment [3] were 0.065, 0.063 and 0.072, respectively.

Values taken from patent US20250066745A1, “MUTANTS AND USE THEREOF” (BGI SHENZHEN, priority 2021, published 2025).
